# From the Immune Epitope Database (IEDB)
# Legend:
# HLA-B*40:02 = test: IEDB peptide-MHC binding, cellular MHC/competitive/fluorescence; ≥ and ≤ were set here for values at or beyond the usual limits of such assays; conditions: source organism: Homo sapiens
# HLA-B*58:01 = test: IEDB peptide-MHC binding, purified MHC/direct/fluorescence; filed as Kd, often an IC50 or EC50 that approximates it; ≥ and ≤ were set here for values at or beyond the usual limits of such assays
# HLA-A*01:01 = test: as above
# HLA-A*03:01 = test: as above
# HLA-A*26:01 = test: as above; conditions: source organism: Vibrio cholerae
# HLA-B*40:01 = test: as above
# HLA-B*07:02 [1] = test: as above
# HLA-A*31:01 [2] = test: as above; conditions: source organism: Vibrio cholerae
# HLA-C*06:02 [3] = test: as above; conditions: source organism: Vibrio cholerae 2740-80
# HLA-B*15:01 = test: as above
# HLA-C*12:03 = test: as above; conditions: source organism: Vibrio cholerae 2740-80
# HLA-A*69:01 = test: as above
# HLA-B*44:02 = test: as above; conditions: source organism: Vibrio cholerae
# HLA-B*35:01 [4] = test: as above; conditions: source organism: Vibrio cholerae
# HLA-B*27:05 = test: as above
# HLA-A*11:01 = test: as above
# HLA-B*08:01 = test: as above
# HLA-A*02:01 [5] = test: as above
# HLA-B*46:01 [6] = test: IEDB peptide-MHC binding, purified MHC/competitive/fluorescence; filed as Kd, often an IC50 or EC50 that approximates it; ≥ and ≤ were set here for values at or beyond the usual limits of such assays; conditions: source organism: Vibrio cholerae 2740-80
# HLA-A*02:50 = test: as above; conditions: source organism: Vibrio cholerae 2740-80
# HLA-B*07:02 [7] = test: IEDB peptide-MHC binding, purified MHC/competitive/radioactivity; ≥ and ≤ were set here for values at or beyond the usual limits of such assays; conditions: source organism: dengue virus type 4
# HLA-B*53:01 = test: IEDB peptide-MHC binding, purified MHC/competitive/radioactivity; filed as Kd, often an IC50 or EC50 that approximates it; ≥ and ≤ were set here for values at or beyond the usual limits of such assays; conditions: source organism: Dengue virus 4 Philippines/H241/1956
# HLA-B*35:01 [8] = test: as above; conditions: source organism: Dengue virus 4 Philippines/H241/1956
# HLA-B*15:42 = test: IEDB peptide-MHC binding, purified MHC/competitive/fluorescence; filed as Kd, often an IC50 or EC50 that approximates it; ≥ and ≤ were set here for values at or beyond the usual limits of such assays
# HLA-A*02:11 = test: as above; conditions: source organism: Mycobacterium tuberculosis variant bovis BCG str. Pasteur 1173P2
# HLA-B*83:01 = test: as above
# HLA-C*04:01 = test: as above; conditions: source organism: Mycobacterium tuberculosis variant bovis BCG str. Pasteur 1173P2
# HLA-B*45:06 = test: as above
# HLA-B*27:20 = test: as above
# HLA-A*02:01 [9] = test: as above; conditions: source organism: Mycobacterium tuberculosis variant bovis BCG str. Pasteur 1173P2
# HLA-B*35:01 [10] = test: IEDB peptide-MHC binding, purified MHC/competitive/radioactivity; ≥ and ≤ were set here for values at or beyond the usual limits of such assays; conditions: source organism: Human papillomavirus 16
# HLA-B*18:01 = test: IEDB peptide-MHC binding, purified MHC/direct/fluorescence; filed as Kd, often an IC50 or EC50 that approximates it; ≥ and ≤ were set here for values at or beyond the usual limits of such assays; conditions: source organism: Yersinia pestis
# HLA-B*57:01 = test: as above; conditions: source organism: Yersinia pestis
# HLA-B*48:01 = test: as above
# HLA-B*38:01 = test: as above; conditions: source organism: Yersinia pestis CA88-4125
# HLA-B*46:01 [11] = test: as above; conditions: source organism: Yersinia pestis
# HLA-B*39:01 = test: as above; conditions: source organism: Yersinia pestis CA88-4125
# HLA-B*15:17 = test: as above; conditions: source organism: Yersinia pestis
# HLA-B*15:09 = test: as above; conditions: source organism: Yersinia pestis CA88-4125
# HLA-B*51:01 = test: as above; conditions: source organism: Yersinia pestis
# HLA-A*31:01 [12] = test: IEDB peptide-MHC binding, purified MHC/competitive/fluorescence; filed as Kd, often an IC50 or EC50 that approximates it; ≥ and ≤ were set here for values at or beyond the usual limits of such assays; conditions: source organism: Yersinia pestis KIM10+
# HLA-B*73:01 = test: as above; conditions: source organism: Burkholderia mallei SAVP1
# HLA-C*07:02 = test: IEDB peptide-MHC binding, purified MHC/direct/fluorescence; filed as Kd, often an IC50 or EC50 that approximates it; ≥ and ≤ were set here for values at or beyond the usual limits of such assays; conditions: source organism: Yellow fever virus
# HLA-C*06:02 [13] = test: IEDB peptide-MHC binding, purified MHC/competitive/fluorescence; filed as Kd, often an IC50 or EC50 that approximates it; ≥ and ≤ were set here for values at or beyond the usual limits of such assays; conditions: source organism: Yellow fever virus
# [14] = source organism: Vibrio cholerae
# [15] = source organism: Mycobacterium tuberculosis variant bovis BCG str. Pasteur 1173P2
# [16] = source organism: Yersinia pestis CA88-4125
# [17] = source organism: Yersinia pestis
# [18] = source organism: Yellow fever virus
sequence,measurement,setting,value
SELSPGRSV,IC50,HLA-B*40:02,1100 nM
MMFDAMGAL,Kd,HLA-B*58:01; [14],≥ 20000 nM
same,Kd,HLA-A*01:01; [14],11200 nM
same,Kd,HLA-A*03:01; [14],1460 nM
same,Kd,HLA-A*26:01,1230 nM
same,Kd,HLA-B*40:01; [14],≥ 20000 nM
same,Kd,HLA-B*07:02 [1]; [14],5750 nM
same,Kd,HLA-A*31:01 [2],921 nM
same,Kd,HLA-C*06:02 [3],1480 nM
same,Kd,HLA-B*15:01; [14],37.2 nM
same,Kd,HLA-C*12:03,46 nM
same,Kd,HLA-A*69:01; [14],33.1 nM
same,Kd,HLA-B*44:02,≥ 20000 nM
same,Kd,HLA-B*35:01 [4],18.4 nM
same,Kd,HLA-B*27:05; [14],≥ 20000 nM
same,Kd,HLA-A*11:01; [14],9310 nM
same,Kd,HLA-B*08:01; [14],5760 nM
same,Kd,HLA-A*02:01 [5]; [14],328 nM
same,Kd,HLA-B*46:01 [6],22.7 nM
same,Kd,HLA-A*02:50,0.2 nM
LPSIVREAL,IC50,HLA-B*07:02 [7],0.31 nM
same,Kd,HLA-B*53:01,40.6 nM
same,Kd,HLA-B*35:01 [8],82.8 nM
AEFGPWQTV,Kd,HLA-B*15:42; [15],≥ 5000 nM
same,Kd,HLA-A*02:11,125 nM
same,Kd,HLA-B*83:01; [15],≥ 5000 nM
same,Kd,HLA-C*04:01,≥ 5000 nM
same,Kd,HLA-B*45:06; [15],≥ 5000 nM
same,Kd,HLA-B*27:20; [15],185 nM
same,Kd,HLA-A*02:01 [9],1640 nM
SAFRCFIVY,IC50,HLA-B*35:01 [10],1.4 nM
RPQLWRYRW,Kd,HLA-B*58:01; [16],328 nM
same,Kd,HLA-A*01:01; [17],≥ 20000 nM
same,Kd,HLA-B*18:01,≥ 20000 nM
same,Kd,HLA-B*57:01,343 nM
same,Kd,HLA-A*03:01; [17],≥ 20000 nM
same,Kd,HLA-B*40:01; [17],≥ 20000 nM
same,Kd,HLA-B*48:01; [17],≥ 20000 nM
same,Kd,HLA-B*38:01,≥ 20000 nM
same,Kd,HLA-B*46:01 [11],≥ 20000 nM
same,Kd,HLA-B*07:02 [1]; [17],970 nM
same,Kd,HLA-B*39:01,3180 nM
same,Kd,HLA-B*15:01; [17],≥ 20000 nM
same,Kd,HLA-B*15:17,≥ 20000 nM
same,Kd,HLA-A*69:01; [17],≥ 20000 nM
same,Kd,HLA-B*27:05; [17],≥ 20000 nM
same,Kd,HLA-A*11:01; [17],≥ 20000 nM
same,Kd,HLA-B*08:01; [16],≥ 20000 nM
same,Kd,HLA-B*15:09,≥ 20000 nM
same,Kd,HLA-B*51:01,≥ 20000 nM
same,Kd,HLA-A*02:01 [5]; [17],≥ 20000 nM
same,Kd,HLA-A*31:01 [12],1810 nM
RRFWVGYQQ,Kd,HLA-B*73:01,893 nM
RRRLRTLVL,Kd,HLA-B*48:01; source organism: Yellow fever virus 17D,2930 nM
same,Kd,HLA-C*07:02,225 nM
same,Kd,HLA-B*15:42; [18],≥ 5000 nM
same,Kd,HLA-C*06:02 [13],50.5 nM
same,Kd,HLA-B*83:01; [18],≥ 5000 nM
same,Kd,HLA-B*45:06; [18],≥ 5000 nM
same,Kd,HLA-B*27:20; [18],0.2 nM
